The record followed here is publication PMC10045995.

Experiment [1] concerns the target epidermal growth factor receptor (EGFR), expressed in sensor cells as fusion protein 1 (mNpu^N-EGFR) and fusion protein 2 (EGFR-Npu^C-rMTS-mCherry) (UniProt P00533).
Experiment [2] has the same target. The source holds these as a separate data set.

In experiment [1], “epidermal growth factor (EGF) (from UniProt P01133 971-1023) (ligand)” registered a co-localisation (Pearson's r) of mCherry with mitochondrial stain in sensor cells treated with EGF 0.001-100 ng/mL for 1 h (untreated control 0.08) of 0.87 Pearson's r and a limit of detection (LOD) of EGF by the sensor cells (mCherry translocation to mitochondria) of 0.1 ng/mL. Besides, in experiment [2], the co-localisation (Pearson's r) of mCherry with mitochondrial stain in EGF-treated sensor cells (agonist/antagonist screen; untreated control 0.1) is 0.8 Pearson's r; the co-localisation (Pearson's r) of mCherry with mitochondrial stain in sensor cells co-treated with EGF and Cetuximab (400 nM) (EGF alone 0.8) turned out to be 0.1 Pearson's r.

In turn, “transforming growth factor-α (TGF-α) (from UniProt P01135 40-89) (ligand)” gave a co-localisation (Pearson's r) of mCherry with mitochondrial stain in sensor cells treated with TGF-α (100 ng/mL) (untreated control 0.1) in experiment [2] of 0.8 Pearson's r.
